Laboratory results taken from paper PMC8357825, “Structural basis for Ca^2+ activation of the heteromeric PKD1L3/PKD2L1 channel” (Nature Communications, 2021).

B1: mouse PKD1L3-CTD (residues 1632–2151) (domain or fragment, UniProt Q2EG98 1632-2151, looked up)
chain: PIYTAPAMNNLAKPTRKAWKKQLSKLTGGTLVQILFLTLLMTTVYSAKDSSRFFLHRAIWKRFSHRFSEIKTVEDFYPWANGTLLPNLYGDYRGFITDGNSFLLGNVLIRQTRIPNDIFFPGSLHKQMKSPPQHQEDRENYGAGWVPPDTNITKVDSIWHYQNQESLGGYPIQGELATYSGGGYVVRLGRNHSAATRVLQHLEQRRWLDHCTKALFVEFTVFNANVNLLCAVTLILESSGVGTFLTSLQLDSLTSLQSSERGFAWIVSQVVYYLLVCYYAFIQGCRLKRQRLAFFTRKRNLLDTSIVLISFSILGLSMQSLSLLHKKMQQYHCDRDRFISFYEALRVNSAVTHLRGFLLLFATVRVWDLLRHHAQLQVINKTLSKAWDEVLGFILIIVVLLSSYAMTFNLLFGWSISDYQSFFRSIVTVVGLLMGTSKHKEVIALYPILGSLLVLSSIILMGLVIINLFVSAILIAFGKERKACEKEATLTDMLLQKLSSLLGIRLHQNPSEEHADNTGY
notes: PKD1L3, mouse, Uniprot Q2EG98, carboxy-terminal domain (TM6-TM11 = S1-S6; VSD, PMD and PD), residues 1632-2151; it is not clear whether each chain has both tags or one tag each; No tag removal is described; also called mPKD1L3 (residues 1632–2151); TRP-like domain; source: HEK293F, transiently co-transfected with mPKD2L1, purified (anti-Flag M2 resin, Strep-Tactin resin, SEC in GDN)
B2: mouse PKD2L1 (residues 64–629) (domain or fragment, UniProt A2A259 64-629, looked up)
chain: TLVSSCCLHICRSIRGLWGTTLTENTAENRELYVKTTLRELVVYIVFLVDICLLTYGMTSSSAYYYTKVMSELFLHTPSDSGVSFQTISSMSDFWDFAQGPLLDSLYWTKWYNNQSLGRGSHSFIYYENLLLGAPRLRQLRVRNDSCVVHEDFREDILNCYDVYSPDKEDQLPFGPQNGTAWTYHSQNELGGSSHWGRLTSYSGGGYYLDLPGSRQASAEALQGLQEGLWLDRGTRVVFIDFSVYNANINLFCILRLVVEFPATGGTIPSWQIRTVKLIRYVNNWDFFIVGCEVVFCVFIFYYVVEEILEIHLHRLRYLSSVWNILDLVVILLSIVAVGFHIFRTLEVNRLMGKLLQQPDTYADFEFLAFWQTQYNNMNAVNLFFAWIKIFKYISFNKTMTQLSSTLARCAKDILGFAIMFFIVFFAYAQLGYLLFGTQVENFSTFVKCIFTQFRIILGDFDYNAIDNANRILGPVYFVTYVFFVFFVLLNMFLAIINDTYSEVKEELAGQKDQLQLSDFLKQSYNKTLLRLRLRKERVSDVQKVLKGGEPEIQFEDFTSTLRELG
notes: PKD2L1, mouse, Uniprot A2A259, residues 64-629 (lacks the C-terminal coiled-coil domain); Three copies of this chain (I, II, III) stand with one PKD1L3-CTD in the heterotetramer; It is not clear whether each chain has both tags or one tag each; also called mPKD2L1 (residues 64–629); TRPP2; source: HEK293F, transiently co-transfected with mPKD1L3, purified (anti-Flag M2 resin, Strep-Tactin resin, …)

Experiments:
Experiment in all cases: cryo-EM structure; co-expressed and co-purified PKD1L3-CTD/PKD2L1 complex in 20 mM HEPES pH 7.5, 150 mM NaCl, 0.01% GDN, 0.2% Fos-Choline-8 added; without (apo, 3.4 Å) and with 20 mM CaCl2 (Ca2+-loaded, 3.1 Å)
[1] = biological target: B2; details: both partners purified
[2] = biological target: B1; details: both partners purified
[3] = biological target: the molecule itself

binding result [1] | stoichiometry N [2] | Binder | binding result [3]
binds | – | B1 | –
– | 3 PKD2L1 per PKD1L3 | B2 | binds
